Results on three molecules are retold here after patent US20220119534A1 (DRAGONFLY THERAPEUTICS, published 2022).

“And” between values parts separate entries of the source, which are not always exact repeats. Equal values may be shown once.

For experiment [1], the target named is T1, mFc-hNKG2D (human, UniProt P26718 73-216).
T1 construct: extracellular domain; Made in house (Dragonfly Tx); the order of tag and ECD follows the name mFc-hNKG2D; also called mFc-tagged human NKG2D; not shown: mouse Fc tag
T1 sequence (looked up): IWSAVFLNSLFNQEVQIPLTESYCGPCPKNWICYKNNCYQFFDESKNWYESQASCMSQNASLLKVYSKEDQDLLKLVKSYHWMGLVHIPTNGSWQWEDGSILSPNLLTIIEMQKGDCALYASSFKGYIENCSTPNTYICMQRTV
Nature of the experiment: SPR Biacore 8K 37 C; mFc-hNKG2D captured on anti-mFc chip, TriNKET as analyte; 1:1 kinetic fit; average of 4.

The target in experiment [2] is T2, Human CLEC12A-His (human, UniProt Q5QGZ9 65-265).
T2 construct: Recombinant soluble protein made in house (Dragonfly Tx); The hCLEC12A spot of the HuProt array is written under this molecule as well; also called hCLEC12A-His; hCLEC12A; not shown: His tag
T2 sequence: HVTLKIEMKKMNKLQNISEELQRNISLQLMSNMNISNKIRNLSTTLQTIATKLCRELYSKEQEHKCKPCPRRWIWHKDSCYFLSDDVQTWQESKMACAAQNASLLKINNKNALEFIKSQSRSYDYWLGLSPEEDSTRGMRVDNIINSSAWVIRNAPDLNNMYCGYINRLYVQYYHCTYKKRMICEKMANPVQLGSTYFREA
As to the kind of experiment: SPR Biacore 8K 37 C; TriNKET captured on anti-hFc chip, hCLEC12A-His as analyte; 1:1 fit; control sample, n=2.

Experiment [3] has as its target T1, mFc-hNKG2D. As to the kind of experiment: SPR Biacore 8K 37 C; mFc-hNKG2D captured on anti-mFc chip, TriNKET as analyte; 1:1 kinetic fit; after 4 wks 40 C in HST pH 6.0.
Experimental: Association was monitored for 60 seconds and dissociation was monitored for 60 seconds. Surfaces were regenerated between cycles with three pulses of 10 mM glycine-HCl, pH 1.7 injected for 20 seconds at 100 μL/min. HBS-EP+ (1×) buffer was used throughout the experiment. Data were analyzed using Biacore 8K Insight evaluation software (GE Healthcare).
In experiment [4] the target is T3, mFc-hNKG2D (human, UniProt P26718 73-216).
T3 construct: extracellular domain; Recombinant mFc-tagged NKG2D dimer, made in house; also called human NKG2D; not shown: mouse Fc tag
T3 sequence (looked up): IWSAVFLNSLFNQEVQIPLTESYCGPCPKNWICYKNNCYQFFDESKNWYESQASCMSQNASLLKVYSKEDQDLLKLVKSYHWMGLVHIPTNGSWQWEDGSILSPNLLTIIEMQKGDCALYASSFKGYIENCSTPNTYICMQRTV
As to the kind of experiment: SPR, 37 C, mFc-hNKG2D captured, 1:1 kinetic fit.

For experiment [5], the target named is T3, mFc-hNKG2D. As to the kind of experiment: SPR, 37 C, mFc-hNKG2D captured, 1:1 kinetic fit; average.
Text: NKG2D is a dimer in nature, therefore recombinant mFc-tagged NKG2D dimer was used for this experiment. […] Two different fits were utilized to obtain the equilibrium affinity data: steady state affinity fit and kinetic fit.
The target in experiment [6] is T4, recombinant human CD32a H131 (human, UniProt P12318 36-218, limits assumed, biotinylated).
T4 construct: also called FcγRIIa H131
T4 sequence (looked up): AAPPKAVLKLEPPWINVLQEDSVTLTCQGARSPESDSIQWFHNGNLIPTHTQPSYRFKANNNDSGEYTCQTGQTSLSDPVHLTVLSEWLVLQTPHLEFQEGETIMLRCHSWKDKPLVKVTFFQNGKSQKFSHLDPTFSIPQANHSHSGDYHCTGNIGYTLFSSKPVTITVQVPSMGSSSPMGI
Nature of the experiment: SPR 25C, steady state.

Experiment [7] addresses T5, recombinant human CD16a F158 (human, UniProt P08637 17-208).
T5 construct: also called FcγRIIIa F158
As to the kind of experiment: SPR 25C, steady state.

Experiment [8] deals with T6, recombinant human CD16b (human, UniProt O75015 17-200, limits assumed, biotinylated).
T6 construct: also called FcγRIIIb
Nature of the experiment: SPR 25C, steady state, average.

For experiment [9], the target named is T7, human CLEC12A expressed on cells (human, UniProt Q5QGZ9 1-265).
T7 construct: Transduced isogenic cells or endogenous expression on AML cells; also called RMA-hCLEC12A; Ba/F3-hCLEC12A
T7 sequence: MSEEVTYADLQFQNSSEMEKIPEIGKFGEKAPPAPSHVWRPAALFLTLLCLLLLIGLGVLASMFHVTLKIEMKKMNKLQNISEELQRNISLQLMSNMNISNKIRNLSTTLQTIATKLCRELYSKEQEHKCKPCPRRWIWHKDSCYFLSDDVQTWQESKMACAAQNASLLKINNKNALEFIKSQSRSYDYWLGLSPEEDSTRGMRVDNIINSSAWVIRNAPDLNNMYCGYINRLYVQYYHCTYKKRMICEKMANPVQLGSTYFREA
As to the kind of experiment: flow cytometry, hCLEC12A+ Ba/F3.

T5 sequence (P08637 17-208 limits assumed): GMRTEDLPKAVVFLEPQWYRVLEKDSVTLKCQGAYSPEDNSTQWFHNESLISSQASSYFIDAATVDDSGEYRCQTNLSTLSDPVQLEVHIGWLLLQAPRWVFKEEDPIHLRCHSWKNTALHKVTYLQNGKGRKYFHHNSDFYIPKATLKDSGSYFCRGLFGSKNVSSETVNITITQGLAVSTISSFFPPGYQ
T6 sequence (O75015 17-200 limits assumed): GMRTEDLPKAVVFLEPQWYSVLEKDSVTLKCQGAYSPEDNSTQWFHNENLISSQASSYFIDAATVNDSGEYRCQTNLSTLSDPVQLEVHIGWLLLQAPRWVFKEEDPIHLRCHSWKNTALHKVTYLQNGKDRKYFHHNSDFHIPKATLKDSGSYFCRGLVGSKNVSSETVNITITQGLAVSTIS

B1: F3'-1602 TriNKET (bispecific antibody, human IgG1, kappa)
chain: QLQLQESGPGLVKPSETLSLTCTVSGFSLTNYGLHWIRQPPGKCLEWIGVIWSGGKTDYNPSLKSRVTISKDTSKNQFSLKLSSVQAADTAVYYCAKYDYDDSLDYWGQGTLVTVSSGGGGSGGGGSGGGGSGGGGSDIQMTQSPSSLSASVGDRVTITCHASQNINFWLSWYQQKPGKAPKLLIYEASNLHTGVPSRFSGSGSGTRFTLTISSLQPEDIATYYCQQSHSYPLTFGCGTKLEIKGSDKTHTCPPCPAPELLGGPSVFLFPPKPKDTLMISRTPEVTCVVVDVSHEDPEVKFNWYVDGVEVHNAKTKPREEQYNSTYRVVSVLTVLHQDWLNGKEYKCKVSNKALPAPIEKTISKAKGQPREPRVYTLPPCRDELTKNQVSLTCLVKGFYPSDIAVEWESNGQPENNYKTTPPVLVSDGSFTLYSKLTVDKSRWQQGNVFSCSVMHEALHNHYTQKSLSLSPG
heavy: EVQLVESGGGLVKPGGSLRLSCAASGFTFSSYSMNWVRQAPGKGLEWVSSISSSSSYIYYADSVKGRFTISRDNAKNSLYLQMNSLRAEDTAVYYCARGAPIGAAAGWFDPWGQGTLVTVSSASTKGPSVFPLAPSSKSTSGGTAALGCLVKDYFPEPVTVSWNSGALTSGVHTFPAVLQSSGLYSLSSVVTVPSSSLGTQTYICNVNHKPSNTKVDKKVEPKSCDKTHTCPPCPAPELLGGPSVFLFPPKPKDTLMISRTPEVTCVVVDVSHEDPEVKFNWYVDGVEVHNAKTKPREEQYNSTYRVVSVLTVLHQDWLNGKEYKCKVSNKALPAPIEKTISKAKGQPREPQVCTLPPSRDELTENQVSLTCLVKGFYPSDIAVEWESNGQPENNYKTTPPVLDSDGSFFLYSWLTVDKSRWQQGNVFSCSVMHEALHNHYTQKSLSLSPG
light: DIQMTQSPSSVSASVGDRVTITCRASQGISSWLAWYQQKPGKAPKLLIYAASSLQSGVPSRFSGSGSGTDFTLTISSLQPEDFATYYCQQGVSFPRTFGGGTKVEIKRTVAAPSVFIFPPSDEQLKSGTASVVCLLNNFYPREAKVQWKVDNALQSGNSQESVTEQDSKDSTYSLSSTLTLSKADYEKHKVYACEVTHQGLSSPVTKSFNRGEC
notes: Trispecific F3' format: CLEC12A scFv-Fc paired with NKG2D Fab-Fc; Stressed and control samples of the stability studies are the same molecule; also called AB0237
In experiment [1], B1 had a dissociation rate constant (koff) of 0.13 s⁻¹ and an on-rate constant (kon) of 180000 M⁻¹ s⁻¹. In experiment [2], this molecule had a dissociation constant (Kd) of 1.2 nM, a koff of 0.000933 s⁻¹ and a kon of 779000 M⁻¹ s⁻¹. In addition, in experiment [3], the equilibrium dissociation constant (Kd) is 762 nM, the koff came to 0.0986 s⁻¹ and the on-rate constant (kon) was 129000 M⁻¹ s⁻¹.

B2: AB0192 TriNKET (other)
chain: EVQLVESGGGVVQPGGSLRLSCAASGFTFNAFGMHWVRQAPGKCLEWVAFISSGSTSIYYANTVKGRFTISRDNSKNTLYLQMNSLRAEDTAVYYCARDGYPTGGAMDYWGQGTSVTVSSGGGGSGGGGSGGGGSGGGGSDIQMTQSPSSLSASVGDRVTITCKASQDIYNYLSWFQQKPGKAPKPLIYRANILVSGVPSRFSGSGSGQDYTFTISSLQPEDIATYYCLQFDAFPFTFGCGTKLEIKGSDKTHTCPPCPAPELLGGPSVFLFPPKPKDTLMISRTPEVTCVVVDVSHEDPEVKFNWYVDGVEVHNAKTKPREEQYNSTYRVVSVLTVLHQDWLNGKEYKCKVSNKALPAPIEKTISKAKGQPREPRVYTLPPCRDELTKNQVSLTCLVKGFYPSDIAVEWESNGQPENNYKTTPPVLVSDGSFTLYSKLTVDKSRWQQGNVFSCSVMHEALHNHYTQKSLSLSPG
heavy: EVQLVESGGGLVKPGGSLRLSCAASGFTFSSYSMNWVRQAPGKGLEWVSSISSSSSYIYYADSVKGRFTISRDNAKNSLYLQMNSLRAEDTAVYYCARGAPIGAAAGWFDPWGQGTLVTVSSASTKGPSVFPLAPSSKSTSGGTAALGCLVKDYFPEPVTVSWNSGALTSGVHTFPAVLQSSGLYSLSSVVTVPSSSLGTQTYICNVNHKPSNTKVDKKVEPKSCDKTHTCPPCPAPELLGGPSVFLFPPKPKDTLMISRTPEVTCVVVDVSHEDPEVKFNWYVDGVEVHNAKTKPREEQYNSTYRVVSVLTVLHQDWLNGKEYKCKVSNKALPAPIEKTISKAKGQPREPQVCTLPPSRDELTENQVSLTCLVKGFYPSDIAVEWESNGQPENNYKTTPPVLDSDGSFFLYSWLTVDKSRWQQGNVFSCSVMHEALHNHYTQKSLSLSPG
light: DIQMTQSPSSVSASVGDRVTITCRASQGISSWLAWYQQKPGKAPKLLIYAASSLQSGVPSRFSGSGSGTDFTLTISSLQPEDFATYYCQQGVSFPRTFGGGTKVEIKRTVAAPSVFIFPPSDEQLKSGTASVVCLLNNFYPREAKVQWKVDNALQSGNSQESVTEQDSKDSTYSLSSTLTLSKADYEKHKVYACEVTHQGLSSPVTKSFNRGEC
notes: the condition stands under assay; also called AB0192 Lot AB0192-005
Take B2: the koff was 0.143 s⁻¹ and 0.153 s⁻¹ in [4]; 0.146 s⁻¹ in experiment [5]. Further, the kon in experiment [4] is 186000 M⁻¹ s⁻¹ and 196000 M⁻¹ s⁻¹ and 181000 M⁻¹ s⁻¹; in [5], 188000 M⁻¹ s⁻¹.

B3: F3'-1602 TriNKET (other)
chain: QLQLQESGPGLVKPSETLSLTCTVSGFSLTNYGLHWIRQPPGKCLEWIGVIWSGGKTDYNPSLKSRVTISKDTSKNQFSLKLSSVQAADTAVYYCAKYDYDDSLDYWGQGTLVTVSSGGGGSGGGGSGGGGSGGGGSDIQMTQSPSSLSASVGDRVTITCHASQNINFWLSWYQQKPGKAPKLLIYEASNLHTGVPSRFSGSGSGTRFTLTISSLQPEDIATYYCQQSHSYPLTFGCGTKLEIKGSDKTHTCPPCPAPELLGGPSVFLFPPKPKDTLMISRTPEVTCVVVDVSHEDPEVKFNWYVDGVEVHNAKTKPREEQYNSTYRVVSVLTVLHQDWLNGKEYKCKVSNKALPAPIEKTISKAKGQPREPRVYTLPPCRDELTKNQVSLTCLVKGFYPSDIAVEWESNGQPENNYKTTPPVLVSDGSFTLYSKLTVDKSRWQQGNVFSCSVMHEALHNHYTQKSLSLSPG
heavy: EVQLVESGGGLVKPGGSLRLSCAASGFTFSSYSMNWVRQAPGKGLEWVSSISSSSSYIYYADSVKGRFTISRDNAKNSLYLQMNSLRAEDTAVYYCARGAPIGAAAGWFDPWGQGTLVTVSSASTKGPSVFPLAPSSKSTSGGTAALGCLVKDYFPEPVTVSWNSGALTSGVHTFPAVLQSSGLYSLSSVVTVPSSSLGTQTYICNVNHKPSNTKVDKKVEPKSCDKTHTCPPCPAPELLGGPSVFLFPPKPKDTLMISRTPEVTCVVVDVSHEDPEVKFNWYVDGVEVHNAKTKPREEQYNSTYRVVSVLTVLHQDWLNGKEYKCKVSNKALPAPIEKTISKAKGQPREPQVCTLPPSRDELTENQVSLTCLVKGFYPSDIAVEWESNGQPENNYKTTPPVLDSDGSFFLYSWLTVDKSRWQQGNVFSCSVMHEALHNHYTQKSLSLSPG
light: DIQMTQSPSSVSASVGDRVTITCRASQGISSWLAWYQQKPGKAPKLLIYAASSLQSGVPSRFSGSGSGTDFTLTISSLQPEDFATYYCQQGVSFPRTFGGGTKVEIKRTVAAPSVFIFPPSDEQLKSGTASVVCLLNNFYPREAKVQWKVDNALQSGNSQESVTEQDSKDSTYSLSSTLTLSKADYEKHKVYACEVTHQGLSSPVTKSFNRGEC
notes: CLEC12A scFv-Fc, NKG2D A49MI Fab-Fc, human IgG1 Fc; also called AB0237
In the case of B3, the Kd in experiment [6] is 900 nM and 800 nM; in [7], 1130 nM and 1120 nM and 1090 nM; in [8] it was 7500 nM. This molecule also yielded an EC50 in experiment [9] of 2 nM. Moreover, in experiment [9], the “Max binding MFI” value amounted to 14700 MFI.
